Legend:
[1] = molecular target: T1, Full length recombinant HBcAg (rHBcAg) encompassing residues 1-183 (hepatitis B virus, UniProt P03146 1-183); assay: EIA, support-bound peptide, HBcAg 5 ug/ml
T1 construct: range 1-183; also called hepatitis B virus core antigen

[2] = molecular target: T1, Full length recombinant HBcAg (rHBcAg) …; assay: EIA, support-bound peptide, HBcAg 10 ug/ml
[3] = molecular target: T2, truncated recombinant form of HBeAg containing nine residues of pre-core and the 150 first residues of HBcAg (hepatitis B virus, UniProt P03146 1-150); assay: EIA, support-bound peptide, HBeAg 1.25 ug/ml
T2 construct: domain: nine residues of pre-core;range 1-150; also called hepatitis B virus e antigen
T2 sequence (P03146 1-150): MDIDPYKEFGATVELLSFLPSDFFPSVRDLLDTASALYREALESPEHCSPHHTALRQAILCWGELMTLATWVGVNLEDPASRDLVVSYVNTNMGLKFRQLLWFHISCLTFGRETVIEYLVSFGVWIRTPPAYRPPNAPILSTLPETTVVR

[4] = molecular target: T1, Full length recombinant HBcAg (rHBcAg) …; assay: EIA, peptide coated 25 ug/ml, HBcAg 10 ug/ml
[5] = molecular target: T1, Full length recombinant HBcAg (rHBcAg) …; assay: EIA, peptide coated 12.5 ug/ml, HBcAg 10 ug/ml
[6] = molecular target: T1, Full length recombinant HBcAg (rHBcAg) …; assay: EIA, peptide coated 6.25 ug/ml, HBcAg 10 ug/ml
[7] = molecular target: T1, Full length recombinant HBcAg (rHBcAg) …; assay: EIA, peptide coated 3.125 ug/ml, HBcAg 10 ug/ml
[8] = molecular target: T1, Full length recombinant HBcAg (rHBcAg) …; assay: competition EIA, HBcAg coated 1 ug/ml, peptide 25 ug/ml before mAb 4-2 (competitor); OD of bound mAb
[9] = molecular target: T1, Full length recombinant HBcAg (rHBcAg) …; assay: competition EIA, HBcAg coated 1 ug/ml, peptide 100 ug/ml before mAb 4-2 (competitor); OD of bound mAb
[10] = molecular target: T1, Full length recombinant HBcAg (rHBcAg) …; assay: competition EIA, HBcAg coated 5 ug/ml, peptide 100 ug/ml together with mAb 4-2 (competitor); OD of bound mAb
[11] = molecular target: T1, Full length recombinant HBcAg (rHBcAg) …; assay: EIA, support-bound peptide, HBcAg 5 ug/ml; remark: listed apart in the source
[12] = molecular target: T1, Full length recombinant HBcAg (rHBcAg) …; assay: competition EIA, peptide added to HBcAg before mAb 4-2 (competitor); OD of bound mAb

T1 sequence (P03146 whole entry, the tested form may be a part): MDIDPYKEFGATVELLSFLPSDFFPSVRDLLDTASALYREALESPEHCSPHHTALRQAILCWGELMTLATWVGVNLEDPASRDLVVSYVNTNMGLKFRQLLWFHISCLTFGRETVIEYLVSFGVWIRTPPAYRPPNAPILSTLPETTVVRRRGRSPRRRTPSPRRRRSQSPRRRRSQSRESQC

Row | Binder | OD [1] [OD] | OD [2] [OD] | OD [3] [OD] | OD [4] [OD] | OD [5] [OD] | OD [6] [OD] | OD [7] [OD] | OD at 490 nm [8] [OD] | OD at 490 nm [9] [OD] | OD at 490 nm [10] [OD] | OD at 490 nm [11] [OD] | OD at 490 nm [12] [OD]
1 | LAVSLGQRATISCRASQSVS [LAVSLGQRATISCRASQSVS (SEQ. ID. No. 16)] | 0.501 | 0.872 | 0.023 | 0.276 | 0.24 | 0.388 | 0.355 | 0.429 | 0.345 | 0.891 |  | 
2 | ISCRASQSVSTSSYSYMHWY [ISCRASQSVSTSSYSYMHWY (SEQ. ID. No. 17)] | 0.633 | 1.15 | 0.056 | 0.636 | 0.514 | 0.63 | 0.413 | 0.439 | 0.37 | 1.46 | 1.94 | 
3 | VKPGASVKISCKASGYSFTG (also called Peptide # 25) [VKPGASVKISCKASGYSFTG (SEQ. ID. No. 28)] | 0.359 | 0.897 | 0.034 | 0.569 | 0.423 | 0.298 | 0.217 | 0.359 | 0.274 | 0.91 |  | 
4 | CKASGYSFTGYNMNWVKQSH (also called Peptide # 26) [CKASGYSFTGYNMNWVKQSH (SEQ. ID. No. 29)] | 0.245 | 0.601 | 0.026 | 0.181 | 0.179 | 0.156 | 0.171 | 0.383 | 0.28 | 0.947 |  | 
5 | VKPGASVKLSCKASGYIFTS (also called Peptide # 2; Pept. #2) [VKPGASVKLSCKASGYIFTS (SEQ. ID. No. 5)] | 0.989 | 1.69 | 0.043 | 1.04 | 0.913 | 0.597 | 0.333 | 0.341 | 0.083 | 0.194 | 3.26 | 0.453
